Test results taken from patent US20080181886A1 (Genentech, published 2008).

T1: TRX-APRIL (mouse, UniProt Q9D777 104-241)
T1 construct: Named only as TRX-APRIL
T1 sequence (looked up): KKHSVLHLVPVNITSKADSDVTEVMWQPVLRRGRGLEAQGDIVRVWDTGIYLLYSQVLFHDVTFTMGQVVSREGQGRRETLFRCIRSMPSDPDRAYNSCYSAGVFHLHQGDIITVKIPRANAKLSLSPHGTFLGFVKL

T2: Murine APRIL (mouse, UniProt Q9D777 105-241, limits assumed)
T2 sequence (looked up): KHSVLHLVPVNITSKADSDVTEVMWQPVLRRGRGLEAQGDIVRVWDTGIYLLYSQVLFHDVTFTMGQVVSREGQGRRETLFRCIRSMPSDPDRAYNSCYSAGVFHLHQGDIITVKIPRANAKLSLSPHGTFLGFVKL


Key:
TRX-APRIL = biological target: T1, TRX-APRIL; experiment: SPR competition: ligand in solution against immobilized BCMA-Fc
Method: (§2) Surface plasmon resonance (SPR) measurements on a BIAcore 3000 instrument (Pharmacia Biosensor) were used to measure binding affinities of receptors to immobilized APRIL and BAFF by competition binding. […] In all experiments flow cell 1 was ethanolamine-blocked and used as the reference cell. Washing with 10 mM HCl regenerated flow cells between sample injections. […] The concentration of ligand that provided a slope of about 1 for the initial on-rate of the observed sensorgrams was selected as the fixed concentration to be used in the competition experiments. In all experiments where BAFE was the ligand, the buffer used was composed of 10 mM HEPES, pH 7.2, 150 mM NaCl, and 0.005% Tween-20. In all experiments where TRX-APRIL was the ligand selected, the buffer was composed of 20 mM Tris-HCl, pH 8.0, 200 mM NaCl, and 0.005% Tween-20. […] A linear fit of the initial on-rate of the observed sensorgrams was used to calculate the binding rate (V). The IC₅₀ values were calculated using a four-parameter curve fit (y=((m1−m4)/(1+(m0/m3)̂m2))+m4) of the initial binding rates for the receptor/control (Vᵢ/Vₒ) as a function of receptor concentration.

human BAFF [1] = biological target: T3, human BAFF (human, UniProt Q9Y275 82-285, limits assumed); experiment: as above
Method: as §2

Murine APRIL [2] = biological target: T2, Murine APRIL; experiment: NNS library, phage display;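 further: ligand versus display occurrence-to-degeneracy ratio and higher means enriched by binding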
human BAFF [3] = biological target: T3, human BAFF; experiment: NNS library, phage display;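 further: ligand versus display occurrence-to-degeneracy ratio and higher means enriched by binding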
Murine APRIL [4] = biological target: T2, Murine APRIL; experiment: shotgun scan, phage display
Source text: (§1) Phage from each of the libraries described above were subjected to rounds of binding selection against APRIL, BAFF, or anti-tag antibody (3C8:2F4 Genentech, Inc.) immobilized on 96-well Nunc Maxisorp immunoplates (Sidhu, 2001). BSA-coated wells were used to determine non-specific background binding. Phage eluted from each target were propagated in E. coli XL1-Blue in the presence of M13K07 helper phage; amplified phage were used for selection against the same target in the […] round. […] Enrichment was calculated from the ratio of the phage titer eluted from the target-coated wells to the phage titer eluted from the BSA-coated wells. Individual clones from each library and selection target were then grown in a 96-well format in 400 ul of 2YT medium supplemented with carbenicillin and KO7 helper phage. […] Sequences of acceptable quality were translated and aligned. For APRIL-binding, 71, 40, and 54 sequences were analyzed from libraries one, two and three, respectively. For BAFF-binding, 70, 50, and 53 sequences were analyzed for libraries one, two and three, respectively. For the display selection, a minimum of 47 sequences were analyzed for each library. […] F values describe the effect of mutation on target binding, while accounting for differences in display efficiencies, with values >1 representing deleterious mutations and those <1 representing favorable mutations.

human BAFF [5] = biological target: T3, human BAFF; experiment: shotgun scan, phage display
Source text: as §1

T3 sequence (Q9Y275 82-285 limits assumed): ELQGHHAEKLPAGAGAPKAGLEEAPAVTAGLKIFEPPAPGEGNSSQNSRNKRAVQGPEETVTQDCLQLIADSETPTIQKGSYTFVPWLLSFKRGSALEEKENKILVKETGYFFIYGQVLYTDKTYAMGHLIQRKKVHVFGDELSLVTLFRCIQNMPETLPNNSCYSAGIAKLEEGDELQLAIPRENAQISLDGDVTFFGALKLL

Binder | IC50 (TRX-APRIL) [nM] | IC50 (human BAFF [1]) [nM] | F' APRIL (Murine APRIL [2]) | F' BAFF (human BAFF [3]) | F (APRIL) (Murine APRIL [4]) | F (BAFF) (human BAFF [5])
GSPWSLSCRKEQGKFYDHLLRDCISCASICGQHPKQCAYFCENKLR (receptor, E. coli, cleaved from TRX-His fusion; residue numbers are those of native human TACI (293 aa); also called TACI CRD2) [TACI_d2 (second cysteine-rich domain, CRD2, residues 68-109 of human TACI)] | 6 | 2 | – | – | – | –
SLSCRKEQGKAYDHLLRDCISCASICGQHPKQCAYFCENKLR (receptor, phage library variant, format as m9) [TACI_d2 F78A] | – | – | 0 | 0 | 29 | 1.1
SLSCAKEQGKFYDHLLRDCISCASICGQHPKQCAYFCENKLR (receptor, phage library variant, format as m9) [TACI_d2 R72A] | – | – | – | – | 1.1 | 0.4
SLSCRKEQGKFYDHLLRDCISCASICGQHPKQCAAFCENKLR (receptor, phage library variant, format as m9) [TACI_d2 Y102A] | – | – | – | – | 1.6 | 2
SLSCRKEQGKFYDHLLRDCISCASVCGQHPKQCAYFCENKLR (receptor, phage library variant, format as m9) [TACI_d2 I92V] | – | – | 6 | 9 | 3.3 | 0.5
SLSCGKEQGKFYDHLLRDCISCASICGQHPKQCAYFCENKLR (receptor, phage library variant, format as m9) [TACI_d2 R72G] | – | – | – | – | 0.6 | 0.4
SLSCRKEQGKFYDHLLRDCISCASICGQHPKQCAYFCENKLA (receptor, phage library variant, format as m9) [TACI_d2 R109A] | – | – | – | – | 1.5 | 0.9
SLSCRKEQGKFYDHLLRDCISCASICGQHPKECAYFCENKLR (receptor, phage library variant, format as m9) [TACI_d2 Q99E] | – | – | – | – | 1.6 | 0.8
SLSCPKEQGKFYDHLLRDCISCASICGQHPKQCAYFCENKLR (receptor, phage library variant, format as m9) [TACI_d2 R72P] | – | – | – | – | 0.7 | 0.6
SLSCRKEQGKFYDHLLRDCISCASICGQHPKQCAYFCENKLG (receptor, phage library variant, format as m9) [TACI_d2 R109G] | – | – | – | – | 1.2 | 1.2
SLSCRKEQGKVYDHLLRDCISCASICGQHPKQCAYFCENKLR (receptor, phage library variant, format as m9) [TACI_d2 F78V] | – | – | 1 | 1 | 5.2 | 0.8
SLSCRKEQGKFYDHLLRDCISCASICGQHPKPCAYFCENKLR (receptor, phage library variant, format as m9) [TACI_d2 Q99P] | – | – | – | – | 1.5 | 1.8
SLSCRKEQGKFYDHLLRDCISCASTCGQHPKQCAYFCENKLR (receptor, phage library variant, format as m9) [TACI_d2 I92T] | – | – | 3 | 7 | 6 | 0.9
SLSCRKEQGKFYDHLLRDCISCASICGQHPKQCADFCENKLR (receptor, phage library variant, format as m9) [TACI_d2 Y102D] | – | – | – | – | 0.8 | 0.6
SLSCRKEQGKFYDHLLRDCISCASICGQHPKQCAYFCENKLP (receptor, phage library variant, format as m9) [TACI_d2 R109P] | – | – | – | – | 1.2 | 1.2
